# Paper PMC10413271
# Several values for one entry are separate records, joined by “and”; a condition that tells them apart may be missing. Identical values can stand only once.
# Experiments:
# [1] = target: NiV full-length glycoprotein G (NiV-G) expressed from Ad5-NiVG (Nipah virus, Bangladesh strain (NiV-Bd)); experiment: Western blot (ProteinSimple capillary system)
# [2] = target: NiV-soluble external domain glycoprotein G (NiV-Ge) expressed from Ad5-NiVGe (Nipah virus, Bangladesh strain (NiV-Bd)); experiment: Western blot (ProteinSimple capillary system)
substance,measurement,setting,value
NiV full-length glycoprotein G (NiV-G) expressed from Ad5-NiVG (natural protein),stoichiometry N,[1],2
NiV-soluble external domain glycoprotein G (NiV-Ge) expressed from Ad5-NiVGe (domain or fragment),stoichiometry N,[2],2 and 4
